The assay has as its target Recombinant HSP with AVI and HIS tag (16 kDa heat shock protein of Mycobacterium tuberculosis) (Mycobacterium tuberculosis) (UniProt P9WMK1). The assay can be described thus: native MS.

With “Recombinant HSP with AVI and HIS tag (16 kDa heat shock protein of Mycobacterium tuberculosis) (from UniProt P9WMK1 1-144) (natural protein)”, the stoichiometry N was found to be 2.

What is called stoichiometry N is the number of molecules, sites or subunits per partner or assembly.

The values are drawn from PMC3667823.
